In patent US7605127 one finds affinity for Met relative to full-length HGF/SF (fold of HGF/SF affinity), [3H]-thymidine incorporation in B5/589 cells, percent of the maximal DNA synthesis elicited by HGF/SF (% of maximal HGF/SF response and inhibition of HGF/SF mitogenic activity in the B5/589 bioassay: molar excess for ~50% reduction (fold molar excess over HGF/SF) data, which are given here for 1 substance.

Assay [1] has as its target c-met protooncogene product (HGF receptor) on B5/589 human mammary epithelial cells (human) (UniProt P08581). As to the kind of experiment: competition of 125I-HGF/NK1 cross-linking to B5/589 cells by excess unlabeled HGF/NK1 or HGF/SF.
The target is the same in assay [2]. Briefly: cell-based or functional assay.

“HGF/NK1 (truncated HGF variant; N-terminal domain and first kringle domain), eukaryotically expressed from the pH46 (2.2 kb) coding region (from UniProt P14210 32-210) (ligand)”: the affinity for Met relative to full-length HGF/SF (fold of HGF/SF affinity) in assay [1] turned out to be 0.25. In assay [2], this substance showed a [3H]-thymidine incorporation in B5/589 cells, percent of the maximal DNA synthesis elicited by HGF/SF (% of maximal HGF/SF response at 8 nM) of 20 and an inhibition of HGF/SF mitogenic activity in the B5/589 bioassay: molar excess for ~50% reduction (fold molar excess over HGF/SF) of 20.
